Test results taken from patent publication CN110028581A.

Legend:
[1] = target: 微囊藻毒素抗体IgG in ascites (腹水)
[2] = target: 微囊藻毒素抗体Fab片段 (microcystin antibody Fab fragment)
[3] = target: 微囊藻毒素抗体Fab片段 (microcystin antibody Fab fragment); experiment: ic-ELISA: free MC-LR (1000 ng/mL dilution) against coated MC-LR-OVA for the Fab

Substance: 微囊藻毒素-LR (microcystin-LR) (peptide)
- 抑制率 (inhibition rate) [1]: 91%
- IC20 [2]: 0.15 ng/mL
- IC50 [2]: 0.56 ng/mL
- IC80 [2]: 2.1 ng/mL
- 抑制率 (inhibition rate) [3]: 99%
